This test deals with Human mitochondrial chaperonin mHsp60 (human), P10809. Briefly: cryo-EM structure; ~9 mg/ml mHsp60 on Quantifoil holey carbon grids, Titan Krios 300 kV, C7 symmetry imposed, combined map at 3.4 Å; 2D class averages show seven-fold symmetry. The conditions noted are these: remark: other sources report otherwise.

B1: Human mitochondrial chaperonin mHsp60, P10809 27-573 (natural protein)
chain: AKDVKFGADARALMLQGVDLLADAVAVTMGPKGRTVIIEQSWGSPKVTKDGVTVAKSIDLKDKYKNIGAKLVQDVANNTNEEAGDGTTTATVLARSIAKEGFEKISKGANPVEIRRGVMLAVDAVIAELKKQSKPVTTPEEIAQVATISANGDKEIGNIISDAMKKVGRKGVITVKDGKTLNDELEIIEGMKFDRGYISPYFINTSKGQKCEFQDAYVLLSEKKISSIQSIVPALEIANAHRKPLVIIAEDVDGEALSTLVLNRLKVGLQVVAVKAPGFGDNRKNQLKDMAIATGGAVFGEEGLTLNLEDVQPHDLGKVGEVIVTKDDAMLLKGKGDKAQIEKRIQEIIEQLDVTTSEYEKEKLNERLAKLSDGVAVLKVGGTSDVEVNEKKDRVTDALNATRAAVEEGIVLGGGCALLRCIPALDSLTPANEDQKIGIEIIKRTLKIPAMTIAKNAGVEGSLIVEKIMQSSSEVGYDAMAGDFVNMVEKGIIDPTKVVRTALLDAAGVASLLTTAEVVVTEIPKEEKDPGMGAMGGMGGGMGGGMF
What is called stoichiometry N is a count of units in the complex or per binding partner. For the molecule B1, the stoichiometry N came to 7.

The record behind these values is article PMC8292379.
